The source of these data is paper PMC5752578 (Structure (London, England : 1993), 2017).

Broadly, the stoichiometry N is the number of molecules, sites or subunits per partner or assembly.

The target in data set [1] is T1, Grp1 63-399 E161A part of the Grp1 63-399 E161A Arf6 Q67L fusion (mouse, UniProt O08967 63-399, E161A).
T1 sequence (looked up): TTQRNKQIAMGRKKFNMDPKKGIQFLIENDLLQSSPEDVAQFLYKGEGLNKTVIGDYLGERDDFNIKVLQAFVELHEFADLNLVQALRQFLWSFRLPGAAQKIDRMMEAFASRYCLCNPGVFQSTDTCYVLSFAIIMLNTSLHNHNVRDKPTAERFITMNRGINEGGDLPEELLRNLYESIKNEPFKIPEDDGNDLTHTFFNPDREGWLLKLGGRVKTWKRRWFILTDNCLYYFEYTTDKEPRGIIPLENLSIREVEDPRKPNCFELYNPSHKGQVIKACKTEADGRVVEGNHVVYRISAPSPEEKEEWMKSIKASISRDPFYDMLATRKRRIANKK
Put plainly: SEC-SAXS. (In general: In gel filtration, larger molecules generally elute earlier.)

The data set “SEC-SAXS” concerns the molecule itself. As to the kind of experiment: SEC-SAXS.

B1: Arf6 Q67L part of the Grp1-Arf6 fusion constructs, loaded with GppNHp (natural protein, human)
chain: GKVLSKIFGNKEMRILMLGLDAAGKTTILYKLKLGQSVTTIPTVGFNVETVTYKNVKFNVWDVGGLDKIRPLWRHYYTGTQGLIFVVDCADRDRIDEARQELHRIINDREMRDAIILIFANKQDLPDAMKPHEIQEKLGLTRIRDRNWYVQPSCATSGDGLYEGLTWLTSNYK
Turning to B1, in data set [1], the binding result was “binds”.

B2: Grp1_(63-390) (mouse Grp1, diglycine splice variant, residues 63-390; fully active, lacking the polybasic region) (domain or fragment, UniProt O08967 63-390, looked up)
chain: TTQRNKQIAMGRKKFNMDPKKGIQFLIENDLLQSSPEDVAQFLYKGEGLNKTVIGDYLGERDDFNIKVLQAFVELHEFADLNLVQALRQFLWSFRLPGEAQKIDRMMEAFASRYCLCNPGVFQSTDTCYVLSFAIIMLNTSLHNHNVRDKPTAERFITMNRGINEGGDLPEELLRNLYESIKNEPFKIPEDDGNDLTHTFFNPDREGWLLKLGGRVKTWKRRWFILTDNCLYYFEYTTDKEPRGIIPLENLSIREVEDPRKPNCFELYNPSHKGQVIKACKTEADGRVVEGNHVVYRISAPSPEEKEEWMKSIKASISRDPFYDMLAT
Take B2: the “stoichiometry N” value in “SEC-SAXS” turned out to be 2.
